Measured values reported in patent US20250361274A1, “PEPTIDE AND PEPTIDE-CONTAINING AGENT” (PEPTIDREAM INC., priority 2022, published 2025).
Numbered stars: 1 amine (or outer) side, 2 acyl side, 3 side chain; on linkers, the order of the positions; unused ones are H or OH. Bridge positions count the residues as written; N and C are the ends. Square brackets hold non-standard residues; d marks the D form. Ends that are not written are not given here. Peptide text beside a SMILES is read from it. KCOpipzaa = N6-(4-(carboxymethyl)piperazine-1-carbonyl)-L-lysine, O=C(NCCCC[C@H](N[*:1])C(=O)[*:2])N1CCN(CC(=O)[*:3])CC1; 3Pal(6-Ph) = N[C@@H](Cc1ccc(-c2ccccc2)nc1)C(=O)O; X3 = O=C(C[C@@H](Cc1ccc(F)cc1)C(=O)[*:1])C[*:2]; Phe(4-COOH) = N[C@@H](Cc1ccc(C(=O)O)cc1)C(=O)O; NMePhe(4-Me) = CN[C@@H](Cc1ccc(C)cc1)C(=O)O; Bip = N[C@@H](Cc1ccc(-c2ccccc2)cc1)C(=O)O; Abu(4,4,4-F3) = N[C@@H](CC(F)(F)F)C(=O)O; Phe(4-F) = N[C@@H](Cc1ccc(F)cc1)C(=O)O; cisHyp = O=C(O)[C@@H]1C[C@H](O)CN1; Hyp = O=C(O)[C@@H]1C[C@@H](O)CN1; NMeF = CN[C@@H](Cc1ccccc1)C(=O)O; 3Pal = N[C@@H](Cc1cccnc1)C(=O)O; 4Pal = N[C@@H](Cc1ccncc1)C(=O)O; Aad = N[C@@H](CCCC(=O)O)C(=O)O; Cha = N[C@@H](CC1CCCCC1)C(=O)O; Chg = N[C@H](C(=O)O)C1CCCCC1; β3hC = N[C@@H](CS)CC(=O)O; βAla = NCCC(=O)O

Assays:
[1] = target: T1, BMP7 (Homo sapiens, UniProt P18075); assay: BMP7 signal transduction inhibitory activity: SMAD1 phosphorylation by BMP7 stimulus, A549 cells; format: cell-based; conditions: for aLISA BMP7: A549 cells; for aLISA BMP7 (10 nM) % inh: peptide conc. in assay 1, 10, 100 nM; for aLIZA BMP7 (10 nM) % Inh: SMAD1 phosphorylation by BMP7 stimulus
T1 sequence (P18075 293-431): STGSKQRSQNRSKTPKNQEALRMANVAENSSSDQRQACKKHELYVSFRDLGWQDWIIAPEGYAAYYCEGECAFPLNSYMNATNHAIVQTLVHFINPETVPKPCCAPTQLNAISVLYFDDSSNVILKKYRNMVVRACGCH
Summary of the method: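 A549 cells were stimulated with 10 nM BMP7, and peptide inhibition of signalling was measured as SMAD1 phosphorylation. Peptides were tested at three concentrations, in sets ranging from 1–100 nM to 100–1,000 nM, or as eight-point 1/3 dilution series starting at 100 nM or 1,000 nM.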

[2] = target: T2, BMP4 (Homo sapiens, UniProt P12644); assay: BMP4 signal transduction inhibitory activity: SMAD1 phosphorylation by BMP4 stimulus, AlphaLISA SureFire, A549 cells; format: cell-based; conditions: for aLISA BMP4: A549 cells; for aLISA BMP4 (0.2 nM) % inh: peptide conc. in assay 0.2, 2, 20 nM; for aLIZA BMP4 (0.2 nM) % Inh: SMAD1 phosphorylation by BMP4 stimulus
T2 sequence (P12644 293-408): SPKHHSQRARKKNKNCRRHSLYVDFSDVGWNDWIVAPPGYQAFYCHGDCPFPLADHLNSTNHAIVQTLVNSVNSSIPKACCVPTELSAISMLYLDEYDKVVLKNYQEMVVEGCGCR

[3] = inhibition of SMAD1 phosphorylation by BMP7 stimulus, AlphaLISA, class by peptide concentration zone
[4] = inhibition of SMAD1 phosphorylation by BMP4 stimulus, AlphaLISA, class by peptide concentration zone
[5] = SMAD1 phosphorylation, BMP7 10 nM
[6] = SMAD1 phosphorylation, BMP4 0.2 nM
[7] = peptide conc. in assay 10, 100, 1000 nM, class symbols
[8] = peptide conc. in assay 0.02, 0.2, 2 nM, class symbols
[9] = inhibition of SMAD1 phosphorylation by BMP7 stimulus, peptides of Synthesis 2, classes A-D, ND
[10] = inhibition of SMAD1 phosphorylation by BMP4 stimulus, peptides of Synthesis 2, classes A-C, ND

71 ({CH2CO}-ERVYVDR[Bip]PYP[Bip][Phe(4-F)][Phe(4-COOH)][Phe(4-COOH)]SCG-NH2; thioether N-17; not fully specified) [compound 71]
aLISA BMP7 [1, 3]: C (showed less than 50% of inhibitory activity in 10 nM-addition zone and showed 50% or more of inhibitory activity in 100 nM-addition zone)
aLISA BMP4 [2, 4]: A (showed an inhibitory activity of 50% or more in a zone to which the peptide was added to in an amount of 0.2 nM)

347 (FG[NMeF]G[Bip]GDD[Cha]A[NMeF][Chg]HCG-NH2; not fully specified (N-terminus, bridges)) [compound 347]
aLISA BMP7 (10 nM) % inh [1, 5]: D (showed less than 30% of inhibitory activity in 10 nM-addition zone and showed 30% or more of inhibitory activity in 100 nM-addition zone)
aLISA BMP4 (0.2 nM) % inh [2, 6]: ND (the inhibitory activity was less than 30% at the maximum concentration evaluated)

409 (FG[NMeF]G[Bip]GDE[Cha][Aad][NMeF]L[Phe(4-COOH)]C[βAla][dE]) [compound 409]
aLISA BMP7 (10 nM) % inh ([1]; BMP7 10 nM stimulus): D (showed less than 30% of inhibitory activity in 10 nM-addition zone and showed 30% or more of inhibitory activity in 100 nM-addition zone)
aLISA BMP4 (0.2 nM) % inh ([2]; BMP4 0.2 nM stimulus): ND (the inhibitory activity was less than 30% at the maximum concentration evaluated)

271 (ERV[Phe(4-COOH)][Abu(4,4,4-F3)]DR[3Pal(6-Ph)]SYV[Bip][4Pal][Phe(4-COOH)][Phe(4-COOH)]SCG-NH2) [compound 271]
aLIZA BMP7 (10 nM) % inh ([1]; BMP7 10 nM stimulus, peptide conc. in assay 10, 100, 1000 nM, class symbols): ND (the inhibitory activity was less than 30% at the maximum concentration evaluated)
aLIZA BMP4 (0.2 nM) % inh ([2]; BMP4 0.2 nM stimulus, peptide conc. in assay 0.02, 0.2, 2 nM, class symbols): C (showed less than 30% of inhibitory activity in 0.2 nM-addition zone and showed 30% or more of inhibitory activity in 2 nM-addition zone)

49 (Ac-ARVYVDR[Bip]PYP[Bip]Y[Phe(4-COOH)][Phe(4-COOH)]SC[βAla]-PEG12Me; thioether (positions not given here); not fully specified (bridges)) [compound 49]
aLISA BMP7 [1, 3]: ND (the inhibitory activity was less than 30% at the maximum concentration evaluated)
aLISA BMP4 [2, 4]: C (showed an inhibitory activity of less than 50% in 0.2 nM-addition zone and showed an inhibitory activity of 50% or more in 2 nM-addition zone were defined as B or C)

414 (FG[NMeF]G[3Pal(6-Ph)]GDE[Cha][Aad][NMeF]L[cisHyp]C-NH2; not fully specified) [compound 414]
aLISA BMP7 (10 nM) % inh ([1]; BMP7 10 nM stimulus): D (showed less than 30% of inhibitory activity in 10 nM-addition zone and showed 30% or more of inhibitory activity in 100 nM-addition zone)
aLISA BMP4 (0.2 nM) % inh ([2]; BMP4 0.2 nM stimulus): ND (the inhibitory activity was less than 30% at the maximum concentration evaluated)

413 ([Phe(4-F)]G[NMeF]G[3Pal(6-Ph)]GDE[Cha][Aad][NMePhe(4-Me)]L[Phe(4-COOH)]C[βAla][dE]) [compound 413]
aLISA BMP7 (10 nM) % inh ([1]; BMP7 10 nM stimulus): D (showed less than 30% of inhibitory activity in 10 nM-addition zone and showed 30% or more of inhibitory activity in 100 nM-addition zone)
aLISA BMP4 (0.2 nM) % inh ([2]; BMP4 0.2 nM stimulus): ND (the inhibitory activity was less than 30% at the maximum concentration evaluated)

323 ([3Pal]G[NMeF]G[Bip]GDD[Cha]A[NMeF]LHCG-NH2; not fully specified) [compound 323]
aLISA BMP7 (10 nM) % inh [1, 5]: D (showed less than 30% of inhibitory activity in 10 nM-addition zone and showed 30% or more of inhibitory activity in 100 nM-addition zone)
aLISA BMP4 (0.2 nM) % inh [2, 6]: ND (the inhibitory activity was less than 30% at the maximum concentration evaluated)

249 (ERVHVDR[3Pal(6-Ph)]SYV[Bip]Y[Phe(4-COOH)][Phe(4-COOH)]SCG-NH2; not fully specified) [compound 249]
aLIZA BMP7 (10 nM) % Inh [1, 7]: E (showed less than 30% of inhibitory activity in 100 nM-addition zone and showed 30% or more of inhibitory activity in 1,000 nM-addition zone)
aLIZA BMP4 (0.2 nM) % Inh [2, 8]: C (showed less than 30% of inhibitory activity in 0.2 nM-addition zone and showed 30% or more of inhibitory activity in 2 nM-addition zone)

118 (EKVYVKRFPYPFYFFSCAE; not fully specified; MOD_RES 2 K represents N6-(4-(Carboxymethyl) piperazine-1-carbonyl)-L-lysine(KCOpipzaa); MOD_RES 6 K represents N6-(4-(Carboxymethyl) piperazine-1-carbonyl)-L-lysine(KCOpipzaa); MOD_RES 8 F represents (S)-3-(1,1'-Biphenyl-4-yl)-2-aminopropanoic acid(Bph); MOD_RES 12 F represents (S)-3-(1,1'-Biphenyl-4-yl)-2-aminopropanoic acid(Bph); MOD_RES 14 F represents (S)-4-(2-amino-2-carboxyethyl)benzoic aci) [compound 118]
aLISA BMP7 [1, 9]: C (showed less than 50% of inhibitory activity in 10 nM-addition zone and showed 50% or more of inhibitory activity in 100 nM-addition zone)
aLISA BMP4 [2, 10]: A (showed an inhibitory activity of 50% or more in a zone to which the peptide was added to in an amount of 0.2 nM)

307 (ERV[Phe(4-COOH)][Chg][KCOpipzaa]R[3Pal(6-Ph)][KCOpipzaa]Y[Hyp][Bip]Y[Phe(4-COOH)][Phe(4-COOH)]SCG-NH2; not fully specified) [compound 307]
aLIZA BMP7 (10 nM) % inh ([1]; BMP7 10 nM, peptide 10, 100, 1000 nM, Table 6): E (showed less than 30% of inhibitory activity in 100 nM-addition zone and showed 30% or more of inhibitory activity in 1,000 nM-addition zone)
aLIZA BMP4 (0.2 nM) % inh ([2]; BMP4 0.2 nM, peptide 0.02, 0.2, 2 nM, Table 6): C (showed less than 30% of inhibitory activity in 0.2 nM-addition zone and showed 30% or more of inhibitory activity in 2 nM-addition zone)

77 ({CH2CO}-ERVYVDR[Bip][KCOpipzaa]YP[Bip][Phe(4-F)][Phe(4-COOH)][Phe(4-COOH)]SCG-NH2; thioether N-17; not fully specified) [compound 77]
aLISA BMP7 [1, 3]: C (showed less than 50% of inhibitory activity in 10 nM-addition zone and showed 50% or more of inhibitory activity in 100 nM-addition zone)
aLISA BMP4 [2, 4]: A (showed an inhibitory activity of 50% or more in a zone to which the peptide was added to in an amount of 0.2 nM)

Cc1ccc(C[C@H]2C(=O)N[C@@H](CC(C)C)C(=O)N3C[C@@H](O)C[C@H]3C(=O)N[C@H](CC(=O)NCCC(=O)N[C@H](CCC(=O)O)C(=O)O)CSCC(=O)C[C@@H](Cc3ccc(F)cc3)C(=O)NCC(=O)N(C)[C@@H](Cc3ccccc3)C(=O)NCC(=O)N[C@@H](Cc3ccc(-c4ccccc4)nc3)C(=O)NCC(=O)N[C@@H](CC(=O)O)C(=O)N[C@@H](CCC(=O)O)C(=O)N[C@@H](CC3CCCCC3)C(=O)N[C@@H](CCCC(=O)O)C(=O)N2C)cc1 [SEQ ID No. 417, ClAc-F4F-G-MeF-G-3Py6Ph-G-D-E-Cha-Hgl-MeF4Me-L-P4Sh-C-bA-de-OH] (G[NMeF]G[3Pal(6-Ph)]GDE[Cha][Aad][NMePhe(4-Me)]L[cisHyp][β3hC][βAla][dE]-OH; linker N-13 via X3)
BMP7 inhibitory activity (in words) [1]: same level of the BMP7 inhibitory activity as Noggin
aLISA BMP7 ([1]; 10 nM BMP7, peptides of Synthesis 2, peptide 1, 10, 100 nM): C (showed less than 50% of inhibitory activity in 10 nM-addition zone and showed 50% or more of inhibitory activity in 100 nM-addition zone)
BMP4 inhibitory activity (in words) [2]: does not inhibit signal transduction of BMP 4
aLISA BMP4 ([2]; SMAD1 phosphorylation, peptides of Synthesis 2, peptide 0.02, 0.2, 2 nM): A (showed an inhibitory activity of 50% or more in a zone to which the peptide was added to in an amount of 0.2 nM)

246 (ERV[4Pal]VDR[3Pal(6-Ph)]SYV[Bip]Y[Phe(4-COOH)][Phe(4-COOH)]SCG-NH2; not fully specified) [compound 246]
aLIZA BMP7 (10 nM) % Inh [1, 7]: E (showed less than 30% of inhibitory activity in 100 nM-addition zone and showed 30% or more of inhibitory activity in 1,000 nM-addition zone)
aLIZA BMP4 (0.2 nM) % Inh [2, 8]: C (showed less than 30% of inhibitory activity in 0.2 nM-addition zone and showed 30% or more of inhibitory activity in 2 nM-addition zone)

92 ({CH2CO}-EKVYVDK[Bip]YYV[Bip][Phe(4-F)][Phe(4-COOH)][4Pal]SCG-NH2; thioether N-17; not fully specified) [compound 92]
aLISA BMP7 [1, 9]: C (showed less than 50% of inhibitory activity in 10 nM-addition zone and showed 50% or more of inhibitory activity in 100 nM-addition zone)
aLISA BMP4 [2, 10]: C (showed an inhibitory activity of less than 50% in 0.2 nM-addition zone and showed an inhibitory activity of 50% or more in 2 nM-addition zone were defined as B or C)
